In patent publication US11390894B2, “Biological processes for the production of aryl sulfates” (CysBio ApS, priority 2014, dated 2022):

B1: RcTAL: tyrosine ammonia-lyase from Rhodobacter capsulatus (protein, listed as Rhodobacter capsulatus)
chain: MLDATIGRKRMTLQSQTAKDCLALDGALTLVQCEAIATHRSRISVTPALRERCARAHARLEHAIAEQRHIYGITTGFGPLANRLIGADQGAELQQNLIYHLATGVGPKLSWAEARALMLARLNSILQGASGASPETIDRIVAVLNAGFAPEVPAQGTVGASGDLTPLAHMVLALQGRGRMIDPSGRVQEAGAVMDRLCGGPLTLAARDGLALVNGTSAMTAIAALTGVEAARAIDAALRHSAVLMEVLSGHAEAWHPAFAELRPHPGQLRATERLAQALDGAGRVCRTLTAARRLTAADLRPEDHPAQDAYSLRVVPQLVGAVWDTLDWHDRVVTCELNSVTDNPIFPEGCAVPALHGGNFMGVHVALASDALNAALVTLAGLVERQIARLTDEKLNKGLPAFLHGGQAGLQSGFMGAQVTATALLAEMRANATPVSVQSLSTNGANQDVVSMGTIAARRARAQLLPLSQIQAILALALAQAMDLLDDPEGQAGWSLTARDLRDRIRAVSPGLRADRPLAGDIEAVAQGLRHPSAADPPA
B2: SULT1A1 Homo sapiens, RmXAL: SULT1A1 from Homo sapiens co-expressed with tyrosine ammonia lyase RmXAL in E. coli (protein, UniProt P50225 1-295, looked up)
Sulfotransferase 1A1: MELIQDTSRPPLEYVKGVPLIKYFAEALGPLQSFQARPDDLLISTYPKSGTTWVSQILDMIYQGGDLEKCHRAPIFMRVPFLEFKAPGIPSGMETLKDTPAPRLLKTHLPLALLPQTLLDQKVKVVYVARNAKDVAVSYYHFYHMAKVHPEPGTWDSFLEKFMVGEVSYGSWYQHVQEWWELSRTHPVLYLFYEDMKENPKREIQKILEFVGRSLPEETVDFVVQHTSFKEMKKNPMTNYTTVPQEFMDHSISPFMRKGMAGDWKTTFTVAQNERFDADYAEKMAGCSLSFRSEL
modifications: co-expressed with RmXAL
notes: SULT1A1 from Homo sapiens co-expressed with tyrosine ammonia lyase RmXAL in E. coli
B3: RmXAL: enzyme from Rhodotorula mucilaginosa/Rhodotorula rubra with tyrosine ammonia lyase activity (protein, listed as Rhodotorula mucilaginosa)
chain: MAPSVDSIATSVANSLSNGLHAAAAANGGDVHKKTAGAGSLLPTTETTQLDIVERILADAGATDQIKLDGYTLTLGDVVGAARRGRSVKVADSPHIREKIDASVEFLRTQLDNSVYGVTTGFGGSADTRTEDAISLQKALLEHQLCGVLPTSMDGFALGRGLENSLPLEVVRGAMTIRVNSLTRGHSAVRIVVLEALTNFLNHGITPIVPLRGTISASGDLSPLSYIAASITGHPDSKVHVDGKIMSAQEAIALKGLQPVVLGPKEGLGLVNGTAVSASMATLALTDAHVLSLLAQALTALTVEAMVGHAGSFHPFLHDVTRPHPTQIEVARNIRTLLEGSKYAVHHETEVKVKDDEGILRQDRYPLRCSPQWLGPLVSDMIHAHAVLSLEAGQSTTDNPLIDLENKMTHHGGAFMASSVGNTMEKTRLAVALMGKVSFTQLTEMLNAGMNRALPSCLAAEDPSLSYHCKGLDIAAAAYTSELGHLANPVSTHVQPAEMGNQAINSLALISARRTAEANDVLSLLLATHLYCVLQAVDLRAMEFEHTKAFEPMVTELLKQHFGALATAEVEDKVRKSIYKRLQQNNSYDLEQRWHDTFSVATGAVVEALAGQEVSLASLNAWKVACAEKAIALTRSVRDSFWAAPSSSSPALKYLSPRTRVLYSFVREEVGVKARRGDVYLGKQEVTIGTNVSRIYEAIKSGCIAPVLVKMMA
B4: RsTAL: tyrosine ammonia-lyase from Rhodobacter sphaeroides (protein)
chain: MLAMSPPKPAVELDRHIDLDEAHSVASGGARIVLAPPARDRCRASEARLGAVIREARHVYGLTTGFGPLANRLVSGENVRTLQANLVHHLASGVGPVLDWTTARAMVLARLVAIAQGASGASEGTIARLIDLLNSELAPAVPMRGTVGASGDLTPLAHMVLCLQGRGDFLDRDGTRLDGAEGLRRGRLQPLDLSHRDALALVNGTSAMTGIALVNAHACRHLGNWAVALTALLAECLGGRTEAWAAALSDLRPHPGQKDAAARLRARVDGSARVVRHVIAERRLGASDIGTEPEAGQDAYSLRCAPQVLGAGFDTLAWHDRVLTIELNAVTDNPVFPPDGSVPALHGGNFMGQHVALTSDALATAVTVLAGLAERQIARLTDERLNRGLPPFLHRGPAGLNSGFMGAQVTATALLAEMRATGPASIHSISTNAANQDVVSLGTIAARLCREKIDRWAEILAILALCLAQAAELRCGSGLDGVSPAGKKLVQALREQFPPLETDRPLGQEIAALATHLLQQSPV
modifications: Rhodobacter sphaeroides
B5: FjTAL: tyrosine ammonia-lyase from Flavobacterium johnsoniae (protein, listed as Flavobacterium johnsoniae)
chain: MNTINEYLSLEEFEAIIFGNQKVTISDVVVNRVNESFNFLKEFSGNKVIYGVNTGFGPMAQYRIKESDQIQLQYNLIRSHSSGTGKPLSPVCAKAAILARLNTLSLGNSGVHPSVINLMSELINKDITPLIFEHGGVGASGDLVQLSHLALVLIGEGEVFYKGERRPTPEVFEIEGLKPIQVEIREGLALINGTSVMTGIGVVNVYHAKKLLDWSLKSSCAINELVQAYDDHFSAELNQTKRHKGQQEIALKMRQNLSDSTLIRKREDHLYSGENTEEIFKEKVQEYYSLRCVPQILGPVLETINNVASILEDEFNSANDNPIIDVKNQHVYHGGNFHGDYISLEMDKLKIVITKLTMLAERQLNYLLNSKINELLPPFVNLGTLGFNFGMQGVQFTATSTTAESQMLSNPMYVHSIPNNNDNQDIVSMGTNSAVITSKVIENAFEVLAIEMITIVQAIDYLGQKDKISSVSKKWYDEIRNIIPTFKEDQVMYPFVQKVKDHLINN

Key:
tyrosine [1] = test: In vivo supply of p-coumaric acid by tyrosine ammonia-lyases co-expressed with SULT1A1 rat in E. coli; assay type: cell-based, Escherichia coli; settings: M9 0.2% glucose, 2 mM tyrosine, 1 mM IPTG, overnight 37° C., supernatant
Description: (§1) The concentration of p-courmaric acid (pHCA) and zosteric acid in the supernatant was quantified by high performance (HPLC) and compared to chemical standards. HPLC was done on a Thermo setup using a HS-F5 column and mobile phases: 5 mM ammonium formate pH 4.0 (A) and acetonitrile (B) at 1.5 mL min-1, using a gradient elution starting at 5% B. From 0.5 min after injection to 7 min, the fraction of B increased linearly from 5% to 60%, and between 9.5 min and 9.6 the fraction of B decreased back to 5%, and remaining there until 12 min. pHCA and zosteric acid were quantified by measuring absorbance at 277 nm.
The genes encoding the tyrosine ammonia-lyases RcTAL (from Rhodobacter capsulatus; SEQ ID NO: 48), RsTAL (from Rhodobacter sphaeroides; SEQ ID NO: 17) and FjTAL (from Flavobacterium johnsoniae; SEQ ID NO: 14) were cloned into expression vectors as follows. Genes (SEQ ID NO: 49, 50, and 51, respectively) were optimized for E. coli and synthesized by GeneArt, amplified by PCR using the oligonucleotides shown in the table below, and cloned into pCDFDuet-1 (Novagen): The plasmid was digested with NdeI and BgIII and gel purified. The genes were inserted by isothermal assembly using Gibson Assembly Master Mix (New England Biolabs), and transformed into chemically competent DH5a (laboratory strain) or NEB5α (New England Biolabs), selecting for resistance to 50 μg mL^−1 spectinomycin in LB medium. Resulting plasmids pCBJ215 (RsTAL), pCBJ228 (FjTAL) and pCBJ297 (RcTAL) (FIGS. 6 to 8, respectively) were co-transformed by electroporation into the E. coli expression strain BL21(DE3) (Invitrogen/Life Technologies) together with a pETDuet-1-based plasmid expressing SULT1A1 from rat (Example 1). Transformation cultures were plated on LB containing 50 μg mL^−1 spectinomycin and 100 μg mL^−1 ampicillin. A control strain carrying pCDFDuet-1 was also made.
Strains harboring recombinant plasmids were pre-cultured in 2×YT liquid medium with 100 μg mL^−1 ampicillin and 50 μg mL^−1 spectinomycin and incubated at 37° C. and 250 rpm overnight. The following day, each pre-culture was transferred into 5 ml of M9 minimal medium with 0.2% glucose, 2 mM tyrosine and 1 mM IPTG for induction of expression. Cultures were placed in an incubator at 37° C. with shaking at 250 rpm overnight. The supernatants were then collected by centrifugation twice and applied to HPLC analysis as described in example 1, and the titers of p-coumaric acid (pHCA) and zosteric acid (ZA) were quantified using chemical standards and are presented in the table below.

tyrosine [2] = test: pHCA and zosteric acid in culture media of E. coli expressing an aryl sulfotransferase in combination with a tyrosine ammonia lyase; assay type: cell-based, Escherichia coli; settings: M9 glucose, 0.1 mM IPTG, no substrate added
Description: as §1
The enzyme RmXAL from Rhodotorula mucilaginosa/Rhodotorula rubra (SEQ ID NO: 20) has tyrosine ammonia lyase activity, thus catalyzing the non-oxidative deamination of the amino acid tyrosine, releasing p-coumaric acid (pHCA) and ammonia. The gene encoding RmXAL was codon optimized using standard algorithms for expression in E. coli available by GeneArt (Life Technologies) and amplified by PCR using the primers shown in table 5 and inserted into the pCDFDuet-1 vector (Novagen/Life Technologies), which had been digested by the restriction enzymes NdeI and BgIII, using Gibson reaction (New England Biolabs). FIG. 4 provides an image of the plasmid expressing RmXAL.
The resulting plasmid was co-transformed into E. coli BL21(DE3)pLysS cells (Life Technologies) alone or together with the plasmid expressing SULT1A1 from Homo sapiens (example 1). The resulting strains was grown in M9 media with glucose as a carbon source, with 0.1 mM IPTG for induction of gene expression. Samples were taken as described previously (example 1) for analysis of product formation. […] RmXAL allowed the production of pHCA without addition of any substrate, thus providing a heterologous pathway from the cells normal metabolism to a heterologous product. The additional expression of an aryl sulfotransferase, exemplified by SULT1A1 from Homo sapiens, allowed the in vivo conversion of pHCA to zosteric acid. Thus, an aryl sulfotransferase can act upon a compound produced in vivo and the cells can release the resulting sulfated product to the medium.

Row | Molecule | μM ZA (tyrosine [1]) [µM] | μM pHCA (tyrosine [1]) [μM] | Zosteric acid formed (tyrosine [2]) | pHCA (tyrosine [2]) [mM]
1 | B1 | <1 | 20 | – | –
2 | B2 | – | – | 0.01 mM | 0.02
3 | B3 | – | – | Not detectable | 0.04
4 | B4 | <1 | 78 | – | –
5 | B5 | 16 | 398 | – | –
